Molecular target: wt ACE2_(740)-Fc (M31) (human) (UniProt Q9BYF1)
Experiment: SPR

Sequence of wt ACE2_(740)-Fc (M31) (human) (Q9BYF1 18-740): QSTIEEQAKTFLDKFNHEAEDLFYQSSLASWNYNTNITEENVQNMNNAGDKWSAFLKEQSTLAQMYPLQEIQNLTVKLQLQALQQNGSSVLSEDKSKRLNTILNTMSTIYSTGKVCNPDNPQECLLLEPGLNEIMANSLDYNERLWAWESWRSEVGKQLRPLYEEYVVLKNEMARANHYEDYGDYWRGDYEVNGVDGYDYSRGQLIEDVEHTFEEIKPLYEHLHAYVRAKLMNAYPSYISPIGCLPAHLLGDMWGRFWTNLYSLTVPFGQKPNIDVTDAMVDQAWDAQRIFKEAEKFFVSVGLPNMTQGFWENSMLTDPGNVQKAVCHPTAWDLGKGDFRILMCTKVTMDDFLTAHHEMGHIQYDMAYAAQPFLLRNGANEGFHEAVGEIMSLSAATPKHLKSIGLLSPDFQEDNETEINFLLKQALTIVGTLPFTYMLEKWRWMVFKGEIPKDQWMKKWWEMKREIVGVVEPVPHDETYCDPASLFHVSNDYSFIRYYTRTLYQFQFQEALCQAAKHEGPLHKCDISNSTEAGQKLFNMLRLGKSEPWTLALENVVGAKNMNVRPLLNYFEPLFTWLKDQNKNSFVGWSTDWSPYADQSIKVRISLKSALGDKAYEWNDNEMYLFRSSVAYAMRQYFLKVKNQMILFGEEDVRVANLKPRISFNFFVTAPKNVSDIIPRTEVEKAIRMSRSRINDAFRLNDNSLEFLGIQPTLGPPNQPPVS

“SARS-CoV-2 RBDwt (residue 319–541) (from UniProt P0DTC2 319-541) (domain or fragment; other documents disagree on this pair)” gave a Kd of 13.9 nM.

From PMC8629194
